Experimental data published in patent US7521054.

Biological target: mesothelin (UniProt Q13421)
Assay: cell-based or functional assay

Sequence of UniProt Q13421 (Q13421 other isoform, or with tags, fused parts or gaps limits assumed): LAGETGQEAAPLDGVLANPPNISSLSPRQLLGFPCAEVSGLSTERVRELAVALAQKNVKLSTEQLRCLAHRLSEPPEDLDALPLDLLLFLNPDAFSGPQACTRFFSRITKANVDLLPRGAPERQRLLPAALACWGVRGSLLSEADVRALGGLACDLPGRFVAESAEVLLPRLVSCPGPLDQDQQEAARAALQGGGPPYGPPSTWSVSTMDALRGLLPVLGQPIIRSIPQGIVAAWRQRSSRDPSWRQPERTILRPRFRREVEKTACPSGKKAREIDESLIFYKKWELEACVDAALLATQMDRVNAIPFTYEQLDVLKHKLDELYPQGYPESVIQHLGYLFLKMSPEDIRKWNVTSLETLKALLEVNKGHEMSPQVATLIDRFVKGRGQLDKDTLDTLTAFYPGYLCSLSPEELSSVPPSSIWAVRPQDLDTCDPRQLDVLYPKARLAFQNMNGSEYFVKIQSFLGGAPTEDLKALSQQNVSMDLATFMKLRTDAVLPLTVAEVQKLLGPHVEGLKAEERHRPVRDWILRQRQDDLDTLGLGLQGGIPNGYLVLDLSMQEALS

Substance: SS1(dsFv)-PE38 (from UniProt P11439 278-389; P11439 406-638)
- IC50 (NG/ML), cytotoxic activity on A431-K5 cells: 0.63 ng/mL
